Results as given in patent publication US20090074779A1 (COPENHAGEN UNIVERSITY, published 2009).

B1: NGF-E (peptide)
peptide: RGIDSKHWNSY
notes: also called NGF derived peptide NGF-E
B2: NGF-C2 (peptide)
peptide: CVLSRKAVRRA
B3: NGF-EE (peptide)
peptide: TFVKALTMDGKQAAWR
notes: also called NGF derived peptide NGF-EE
B4: BDNF (ligand, UniProt P23560 129-247, looked up)
chain: HSDPARRGELSVCDSISEWVTAADKKTAVDMSGGTVTVLEKVPVSKGQLKQYFYETKCNPMGYTKEGCRGIDKRHWNSQCRTTQSYVRALTMDSKKRIGWRFIRIDTSCVCTLTIKRGR
notes: also called brain-derived neurotrophic factor
B5: BDNF-EE (peptide)
peptide: SYVRALTMDSKKRIGWR
notes: also called BDNF derived peptide BDNF-EE
B6: BDNF-E (peptide)
peptide: RGIDKRHWNSQ
notes: also called BDNF derived peptide BDNF-E

Experiments:
Test in all cases: SPR (BIAlite), receptor amine-coupled on CM4 chip, ligand injected, 25 C
TrkB = target: T1, TrkB (UniProt Q16620 32-430, limits assumed)
T1 construct: also called NTRK2; TrkB receptor
T1 sequence (Q16620 32-430 limits assumed): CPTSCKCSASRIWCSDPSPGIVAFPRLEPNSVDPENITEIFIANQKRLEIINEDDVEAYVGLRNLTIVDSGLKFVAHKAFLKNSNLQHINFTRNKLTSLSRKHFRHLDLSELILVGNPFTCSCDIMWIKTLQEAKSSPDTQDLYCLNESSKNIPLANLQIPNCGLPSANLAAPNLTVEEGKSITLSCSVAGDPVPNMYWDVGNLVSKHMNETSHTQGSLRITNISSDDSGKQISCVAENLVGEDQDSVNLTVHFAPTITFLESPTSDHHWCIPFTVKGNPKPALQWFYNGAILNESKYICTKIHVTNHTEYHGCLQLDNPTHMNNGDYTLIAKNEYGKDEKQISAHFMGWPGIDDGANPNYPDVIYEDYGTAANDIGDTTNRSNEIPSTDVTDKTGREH
Protocol: (§1) The TrkA, TrkB and TrkC receptors and p75^NTR were immobilized on a sensor chip, CM4, using an amine-coupling kit as follows: the chip was activated by 20 μl activation solution, N-hydroxysuccinimide, (NHS) and N-ethyl-N′-(3-[…])-carbodiimide (EDC), the protein was immobilized using 30 μl of a mixture of 4 μl (0.5 μg/ml) protein in 50 μl 10 mM sodium acetate buffer (pH 4.0); and the chip was blocked by 35 μl blocking solution (ethanolamine-HCl). The receptor surface was regenerated between ligand injections with 15 μl 2 mM NaCl or 10 mM glycine-HCl, pH 2.5. In the present experiments a flow rate of 5 μl/min was used.
(§2) The curve corresponding to the difference between binding to the Trk receptors or the […] receptor and a blank chip was used for analysis.

TrkC = target: T2, TrkC (UniProt Q16288 32-429, limits assumed)
T2 construct: also called NTRK3; TrkC receptor
Protocol: as §1, §2

P75 receptor = target: T3, P75 receptor (UniProt P08138 29-250, limits assumed)
T3 construct: also called p75NTR; p75(NTR)
T3 sequence (looked up): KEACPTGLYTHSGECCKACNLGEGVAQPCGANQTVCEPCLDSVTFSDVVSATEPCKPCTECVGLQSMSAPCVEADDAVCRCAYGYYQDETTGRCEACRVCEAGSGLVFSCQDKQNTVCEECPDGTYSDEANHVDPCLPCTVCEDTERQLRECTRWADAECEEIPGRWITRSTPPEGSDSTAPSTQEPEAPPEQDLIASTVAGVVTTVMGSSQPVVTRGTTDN
Protocol: as §1, §2

TrkA = target: T4, TrkA (UniProt P04629 34-413, limits assumed)
T4 construct: also called NTRK1; TrkA receptor
T4 sequence (P04629 34-413 limits assumed): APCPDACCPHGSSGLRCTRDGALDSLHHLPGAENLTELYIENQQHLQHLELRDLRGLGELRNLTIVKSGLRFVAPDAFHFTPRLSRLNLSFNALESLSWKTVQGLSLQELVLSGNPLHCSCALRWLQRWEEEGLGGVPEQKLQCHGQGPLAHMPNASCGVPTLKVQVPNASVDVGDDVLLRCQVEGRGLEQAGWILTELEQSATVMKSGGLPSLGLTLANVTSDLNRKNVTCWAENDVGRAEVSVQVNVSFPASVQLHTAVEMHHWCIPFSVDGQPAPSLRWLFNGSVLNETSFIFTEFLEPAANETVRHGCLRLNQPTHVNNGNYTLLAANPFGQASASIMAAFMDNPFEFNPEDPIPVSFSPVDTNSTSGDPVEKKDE
Protocol: as §1, §2

Binder | Kd (TrkB) [nM] | Kd (TrkC) [nM] | Kd (P75 receptor) [nM] | Kd (TrkA) [nM]
B1 | 254 | 1060 | 2600 | –
B2 | 883 | 658 | 385 | 727
B3 | 10.3 | 51.9 | 226 | –
B4 | 1.18 | – | 0.0584 | –
B5 | 38.7 | 166 | 110 | –
B6 | 173 | 697 | 556 | –
